T1: mouse CD47 (mouse, UniProt Q61735 19-140, limits assumed)
T1 construct: also called mouse CD47 protein
T1 sequence (looked up): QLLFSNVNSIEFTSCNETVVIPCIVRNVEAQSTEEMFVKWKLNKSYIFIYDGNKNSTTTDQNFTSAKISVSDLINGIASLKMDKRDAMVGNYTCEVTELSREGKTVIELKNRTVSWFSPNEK

T2: rat CD47 (rat, UniProt P97829 19-140, limits assumed)
T2 sequence (looked up): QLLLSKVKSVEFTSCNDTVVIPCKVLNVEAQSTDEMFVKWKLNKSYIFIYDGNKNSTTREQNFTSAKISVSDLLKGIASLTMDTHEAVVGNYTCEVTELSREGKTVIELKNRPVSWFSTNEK

B1: SIRP-α D1 variant fused to Fc variant, SEQ ID NO: 101 (Fc fusion)
chain: EEELQVIQPDKSVLVAAGETATLRCTITSLFPVGPIQWFRGAGPGRELIYNQREGPFPRVTTVSDLTKRNNMDFSIRIGAITPADAGTYYCVKFRKGSPDDVEFKSGAGTELSVRAKPSDKTHTCPPCPAPEAAGAPSVFLFPPKPKDTLMISRTPEVTCVVVDVSHEDPEVKFNWYVDGVEVHNAKTKPREEQYASTYRVVSVLTVLHQDWLNGKEYKCKVSNKALPAPIEKTISKAKGQPREPQVYTLPPSREEMTKNQVSLTCLVKGFYPSDIAVEWESNGQPENNYKTTPPVLDSDGSFFLYSKLTVDKSRWQQGNVFSCSVMHEALHNHYTQKSLSLSPGK
B2: SIRP-α D1 variant fused to Fc variant, SEQ ID NO: 99 (Fc fusion)
chain: B1 chain with I27A, E54Q
B3: SIRP-α D1 variant fused to Fc variant, SEQ ID NO: 102 (Fc fusion)
chain: B1 chain with V6I
B4: SIRP-α D1 variant fused to Fc variant, SEQ ID NO: 110 (Fc fusion)
chain: EEELQVIQPDKSVLVAAGETATLRCTITSLFPVGPIQWFRGAGPGRELIYNQREGPFPRVTTVSDLTKRNNMDFSIRIGAITPADAGTYYCVKFRKGSPDDVEFKSGAGTELSVRAKPSVECPPCPAPPVAGPSVFLFPPKPKDTLMISRTPEVTCVVVDVSHEDPEVQFNWYVDGVEVHNAKTKPREEQFASTFRVVSVLTVVHQDWLNGKEYKCKVSNKGLPSSIEKTISKTKGQPREPQVYTLPPSREEMTKNQVSLTCLVKGFYPSDIAVEWESNGQPENNYKTTPPMLDSDGSFFLYSKLTVDKSRWQQGNVFSCSVMHEALHNHYTQKSLSLSPGK
B5: SIRP-α D1 variant fused to Fc variant, SEQ ID NO: 106 (Fc fusion)
chain: B4 chain with I27A, E54Q, A80N
B6: SIRP-α D1 variant fused to Fc variant, SEQ ID NO: 111 (Fc fusion)
chain: B4 chain with V6I
B7: SIRP-α D1 variant fused to Fc variant, SEQ ID NO: 108 (Fc fusion)
chain: B4 chain with I27A, E54Q
B8: SIRP-α D1 variant fused to Fc variant, SEQ ID NO: 109 (Fc fusion)
chain: B4 chain with I27A
B9: SIRP-α D1 variant fused to Fc variant, SEQ ID NO: 135 (Fc fusion)
chain: EEELQVIQPDKSVLVAAGETATLRCTATSLFPVGPIQWFRGAGPGRELIYNQREGPFPRVTTVSDLTKRNNMDFSIRIGAITPADAGTYYCVKFRKGSPDDVEFKSGAGTELSVRAKPSDKTHTCPPCPAPEAAGAPSVFLFPPKPKDTLMISRTPEVTCVVVDVSHEDPEVKFNWYVDGVEVHNAKTKPREEQYASTYRVVSVLTVLHQDWLNGKEYKCKVSNKALPAPIEKTISKAKGQPREPQVYTLPPSREEMTKNQVSLTCLVKGFYPSDIAVEWESNGQPENNYKTTPPVLDSDGSFFLYSKLTVDKSRWQQGNVFSCSVMHEALHNHYTQKSLSLSPG
B10: SIRP-α D1 variant fused to Fc variant, SEQ ID NO: 114 (Fc fusion)
chain: EEELQIIQPDKSVLVAAGETATLRCTITSLFPVGPIQWFRGAGPGRVLIYNQRQGPFPRVTTVSDTTKRNNMDFSIRIGNITPADAGTYYCIKFRKGSPDDVEFKSGAGTELSVRAKPSERKSSVECPPCPAPPVAGPSVFLFPPKPKDTLMISRTPEVTCVVVDVSHEDPEVQFNWYVDGVEVHNAKTKPREEQFASTFRVVSVLTVVHQDWLNGKEYKCKVSNKGLPSSIEKTISKTKGQPREPQVYTLPPSREEMTKNQVSLTCLVKGFYPSDIAVEWESNGQPENNYKTTPPMLDSDGSFFLYSKLTVDKSRWQQGNVFSCSVMHEALHNHYTQKSLSLSPGK
B11: SIRP-α D1 variant fused to Fc variant, SEQ ID NO: 115 (Fc fusion)
chain: B10 chain with I6V, I27A, V47E, T66L, I92V
B12: SIRP-α D1 variant polypeptide of SEQ ID NO: 78 (receptor)
chain: EEELQIIQPDKSVLVAAGETATLRCTITSLFPVGPIQWFRGAGPGRVLIYNQRQGPFPRVTTVSDTTKRNNMDFSIRIGAITPADAGTYYCIKFRKGSPDDVEFKSGAGTELSVRAKPS
notes: engineered SIRP-α D1 domain
B13: SIRP-α D1 variant polypeptide of SEQ ID NO: 79 (receptor)
chain: B12 chain with I6V, I27A, V47E, T66L, I92V
notes: engineered SIRP-α D1 domain
B14: SIRP-α D1 variant polypeptide of SEQ ID NO: 80 (receptor)
chain: B12 chain with Q54E
notes: engineered SIRP-α D1 domain
B15: SIRP-α D1 variant polypeptide of SEQ ID NO: 64 (receptor)
chain: EEELQVIQPDKSVSVAAGESAILHCTVTSLIPVGPIQWFRGAGPARELIYNQREGPFPRVTTVSESTKRENMDFSISISNITPADAGTYYCVKFRKGSPDTEFKSGAGTELSVRAKPS
notes: engineered SIRP-α D1 domain
B16: SIRP-α D1 variant polypeptide of SEQ ID NO: 65 (receptor)
chain: B15 chain with I31F
notes: engineered SIRP-α D1 domain
B17: SIRP-α D1 variant polypeptide of SEQ ID NO: 67 (receptor)
chain: B15 chain with V27I, I31F, S66T
notes: engineered SIRP-α D1 domain
B18: SIRP-α D1 variant polypeptide of SEQ ID NO: 69 (receptor)
chain: B15 chain with V27I
notes: engineered SIRP-α D1 domain
B19: SIRP-α D1 variant polypeptide of SEQ ID NO: 66 (receptor)
chain: B15 chain with V27I, I31F
notes: engineered SIRP-α D1 domain
B20: SIRP-α D1 variant polypeptide of SEQ ID NO: 68 (receptor)
chain: B15 chain with V6I, V27I, I31F
notes: engineered SIRP-α D1 domain
B21: engineered SIRP-α D1 variant construct that does not bind CD47, SEQ ID NO: 215 (Fc fusion)
chain: B1 chain with I27A, F31I, V33R, Q52R, R53K, P56H, A80N
notes: negative control; also called negative control
B22: SIRP-α D1 variant polypeptide of SEQ ID NO: 208 (receptor)
chain: B12 chain with F31Y, V47E, Q54E, I92V, S98I
B23: SIRP-α D1 variant polypeptide of SEQ ID NO: 205 (receptor)
chain: B12 chain with F31R, V47E, Q54E, I92V, S98I
B24: SIRP-α D1 variant polypeptide of SEQ ID NO: 199 (receptor)
chain: B12 chain with V47E, Q54D, I92V
B25: SIRP-α D1 variant polypeptide of SEQ ID NO: 198 (receptor)
chain: B12 chain with F31Y, V47E, Q54E, I92V
B26: SIRP-α D1 variant polypeptide of SEQ ID NO: 200 (receptor)
chain: B12 chain with V47E, Q54E, I92V, S98I
B27: SIRP-α D1 variant polypeptide of SEQ ID NO: 207 (receptor)
chain: B12 chain with F31Y, V47E, Q54D, I92V
B28: SIRP-α D1 variant fused to Fc variant, SEQ ID NO: 214 (Fc fusion)
chain: EEELQVIQPDKSVLVAAGETATLRCTATSLFPVGPIQWFRGAGPGRELIYNQREGPFPRVTTVSDLTKRNNMDFSIRIGAITPADAGTYYCVKFRKGSPDDVEFKSGAGTELSVRAKPSERKSSVECPPCPAPPVAGPSVFLFPPKPKDTLMISRTPEVTCVVVDVSHEDPEVQFNWYVDGVEVHNAKTKPREEQFASTFRVVSVLTVVHQDWLNGKEYKCKVSNKGLPSSIEKTISKTKGQPREPQVYTLPPSREEMTKNQVSLTCLVKGFYPSDIAVEWESNGQPENNYKTTPPMLDSDGSFFLYSKLTVDKSRWQQGNVFSCSVMHEALHNHYTQKSLSLSPG

Positions count from the first letter of the chain named.

Usually Kd stands for a measure of binding affinity in units of concentration. A high value points to a looser complex.

The target in the first assay is T3, human CD47 (human, UniProt Q08722 19-139).
T3 construct: extracellular domain; also called CD47 ECD
T3 sequence (Q08722 19-139 limits assumed): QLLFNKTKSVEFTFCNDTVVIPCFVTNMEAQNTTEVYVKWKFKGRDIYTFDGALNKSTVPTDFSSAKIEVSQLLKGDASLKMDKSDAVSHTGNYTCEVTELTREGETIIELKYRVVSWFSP
The assay is described as follows: SPR as in Example 1.
In turn, B1 yielded a Kd of 0.89 nM. Take B2: the Kd is 0.895 nM. On the same count and under the same terms, under B3 stands 0.379 nM.

For B4, the dissociation constant (Kd) came out at 0.653 nM.

B5 had a Kd of 0.811 nM. Still for that read-out and setting: in the case of B6 it was 0.315 nM; in that of B7, 0.478 nM. B8: the Kd amounted to 2.15 nM. This Kd lies about 4.5-fold higher than the previous one.

In turn, B9 yielded a Kd of 3.46 nM. Compared with the last molecule, the Kd is about 1.6-fold higher. Same read-out and setting: in the case of B10 it was 0.0343 nM.

For the molecule B11, the dissociation constant Kd is 0.498 nM.

The target of a further assay is T3, human CD47. The assay is described as follows: SPR, 25 C, 1:1 Langmuir fit. In general terms: Surface plasmon resonance follows binding to a sensor surface in real time, without labels.
Molecule B12 showed a Kd of 0.0144 nM. This counts as picomolar. The same measure, in the same setting: under B13 stands 0.217 nM. In turn, B14 yielded a Kd of 0.0472 nM. Still for that read-out and setting: in the case of B15 it was 5.45 nM. In the case of B16, the dissociation constant (Kd) turned out to be 0.8 nM. Same read-out and setting: in the case of B17 it was 0.206 nM. In the case of B18, the Kd came to 2.4 nM. The molecule B19 had a Kd of 0.47 nM. Against the preceding molecule, the Kd is about 5.1-fold lower. B20 yielded a dissociation constant Kd of 0.251 nM.

The target in the next assay is T3, human CD47. The assay is described as follows: SPR (Biacore T100 and ProteOn XPR36).
Regarding B21, the binding result is given as “no binding”.

In the case of B22, binding was put at a Kd of 0.219 nM. In turn, B23 gave a Kd of 0.248 nM. This Kd and that of the molecule before are within 1.5-fold of each other. B24 showed a Kd of 1.26 nM. Compared with the last molecule, the Kd is about 5.1-fold higher. Molecule B25 showed a dissociation constant (Kd) of 0.155 nM. Compared with the last molecule, the Kd is about 8.1-fold lower. Regarding B26, the Kd was found to be 0.304 nM.

On to B27, for which the affinity, expressed as Kd, was 1.04 nM.

Turning to B28, the dissociation constant Kd was 2 nM.

The target of the next assay is T1, mouse CD47. The assay is described as follows: SPR (Biacore T100 and ProteOn XPR36).
Turning to B21, the binding result is reported as “no binding”. The molecule B22 displayed a Kd of 0.832 nM. On to B23, for which the Kd turned out to be 0.569 nM. For the molecule B24, the Kd is 1.25 nM.

Regarding B25, the dissociation constant Kd worked out at 1.41 nM. In turn, B26 returned a Kd of 1.17 nM. B27: binding was put at a Kd of 0.88 nM. The Kd values of the last two molecules are within 1.5-fold of each other. Still for that read-out and setting: in the case of B28 it was 63 nM.

The next assay concerns the target T2, rat CD47. The assay is described as follows: SPR (Biacore T100 and ProteOn XPR36).
As for B21, the binding result is on record as “no binding”. For the molecule B22, the Kd came to 5.17 nM. In turn, B23 had a Kd of 4.28 nM. B24 yielded a Kd of 10.7 nM. Same read-out and setting: in the case of B25 it was 9.88 nM. In turn, B26 gave a Kd of 14.2 nM. B27 showed a dissociation constant (Kd) of 5.9 nM. B28 showed a dissociation constant (Kd) of 80 nM.
